Results taken from patent publication US20220363770A1 (Amgen, published 2022).

Target: human CGRP receptor (human CRLR / human RAMP1 heterodimer) (human, UniProt Q16602 23-461; O60894 27-148)
Experiment: cell-based or functional assay

Chain of human CGRP receptor (human CRLR / human RAMP1 heterodimer) (Q16602 23-461 limits assumed, chain 1 of 2): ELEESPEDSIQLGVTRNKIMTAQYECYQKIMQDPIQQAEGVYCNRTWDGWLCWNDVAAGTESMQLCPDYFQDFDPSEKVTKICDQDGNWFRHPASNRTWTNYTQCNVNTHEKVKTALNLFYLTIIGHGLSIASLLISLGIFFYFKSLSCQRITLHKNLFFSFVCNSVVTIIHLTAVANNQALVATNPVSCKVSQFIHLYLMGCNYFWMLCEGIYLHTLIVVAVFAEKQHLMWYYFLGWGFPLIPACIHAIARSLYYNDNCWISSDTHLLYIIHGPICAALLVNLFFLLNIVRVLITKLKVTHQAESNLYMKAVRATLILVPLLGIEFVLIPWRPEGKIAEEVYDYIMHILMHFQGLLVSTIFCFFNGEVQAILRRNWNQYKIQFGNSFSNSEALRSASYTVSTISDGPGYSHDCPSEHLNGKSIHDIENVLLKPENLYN
Chain of human CGRP receptor (human CRLR / human RAMP1 heterodimer) (O60894 27-148 limits assumed, chain 2 of 2): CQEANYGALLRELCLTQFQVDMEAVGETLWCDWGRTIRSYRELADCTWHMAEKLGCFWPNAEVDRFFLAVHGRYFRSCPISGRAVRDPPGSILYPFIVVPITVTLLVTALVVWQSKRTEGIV

| Binder | Average IC50 (nM), cell-based cAMP assay, SK-N-MC cells, 3 nM human α-CGRP | Fold-improvement over 4E4 Ab (IC50, cAMP assay) | Run 1 IC50 (nM), cell-based cAMP assay, SK-N-MC cells, 3 nM human α-CGRP | Run 2 IC50 (nM), cell-based cAMP assay, SK-N-MC cells, 3 nM human α-CGRP |
| --- | --- | --- | --- | --- |
| anti-CGRP receptor variant antibody 09, bivalent monoclonal antibody (antibody, human IgG1, lambda, N297G, V domains shown) VH: QVQLVESGGGVVQPGRSLRLSCAASGFTFSSFGMHWVRQAPGKGLEWVAVISFAGEIDYYVDSVKGRFTISRDNSKNTLFLQMNSLRAEDTAVYYCARDRLNYYESSGYYHYKYYGMAVWGQGTTVTVSS VL: QSVLTQPPSVSAAPGQKVTISCSGSSSNIGNNYVSWYQQLPGTAPKLLIYDNNKRPSGIPDRFSGSKSGTSATLGITGLQTGDEADYYCGTWDSRLSAVVFGGGTKLTVLG | 0.86 nM | 0.6 fold | 0.73 nM | 1 nM |
| 4E4.2 parental antibody, bivalent monoclonal antibody (antibody, human IgG1, lambda, N297G, V domains shown) VH: QVQLVESGGGVVQPGRSLRLSCAASGFTFSSFGMHWVRQAPGKGLEWVAVISFDGSIKYSVDSVKGRFTISRDNSKNTLFLQMNSLRAEDTAVYYCARDRLNYYESSGYYHYKYYGMAVWGQGTTVTVSS VL: QSVLTQPPSVSAAPGQKVTISCSGSSSNIGNNYVSWYQQLPGTAPKLLIYDNNKRPSGIPDRFSGSKSGTSATLGITGLQTGDEADYYCGTWDSRLSAVVFGGGTKLTVLG | 0.45 nM | 1.2 fold | 0.34 nM | 0.56 nM |
| anti-CGRP receptor variant antibody 08, bivalent monoclonal antibody (antibody, human IgG1, lambda, N297G, V domains shown) VH: QVQLVESGGGVVQPGRSLRLSCAASGFTFSSFGMHWVRQAPGKGLEWVAVISFDGSIKYSVDSVKGRFTISRDNSKNTLFLQMNSLRAEDTAVYYCARDRLNYYESSGYYHYKYYGMAVWGQGTTVTVSS VL: QSVLTQPPSVSAAPGQKVTISCSGSYSNIGWWPVSWYQQLPGTAPKLLIYDNNKRPSGIPDRFSGSKSGTSATLGITGLQTGDEADYYCGTWDSRLSAVVFGGGTKLTVLG | 0.3 nM | 1.8 fold | 0.28 nM | 0.31 nM |
| anti-CGRP receptor variant antibody 04, bivalent monoclonal antibody (antibody, human IgG1, lambda, N297G, V domains shown) VH: QVQLVESGGGVVQPGRSLRLSCAASGFTFSSFGMHWVRQAPGKGLEWVAVISFDGSIKYSVDSVKGRFTISRDNSKNTLFLQMNSLRAEDTAVYYCARDRLNYYRSFGYYGYHYYGMAVWGQGTTVTVSS VL: QSVLTQPPSVSAAPGQKVTISCSGSSSNIGNNYVSWYQQLPGTAPKLLIYDNNKRPSGIPDRFSGSKSGTSATLGITGLQTGDEADYYCGTWDSRLSAVVFGGGTKLTVLG | 0.17 nM | 3.1 fold | 0.14 nM | 0.21 nM |
| anti-CGRP receptor variant antibody 02, bivalent monoclonal antibody (antibody, human IgG1, lambda, N297G, V domains shown) VH: QVQLVESGGGVVQPGRSLRLSCAASGFTFSSFGMHWVRQAPGKGLEWVAVISFDGSIKYSVDSVKGRFTISRDNSKNTLFLQMNSLRAEDTAVYYCARDRLNYYESSGYYHYKYYGMAVWGQGTTVTVSS VL: QSVLTQPPSVSAAPGQKVTISCSGSRSNIGIKAVSWYQQLPGTAPKLLIYDNNKRPSGIPDRFSGSKSGTSATLGITGLQTGDEADYYCGTWDSRLSAVVFGGGTKLTVLG | 0.12 nM | 4.6 fold | 0.1 nM | 0.13 nM |

Continued, values first:

| Average IC50 (nM), cell-based cAMP assay, SK-N-MC cells, 3 nM human α-CGRP | Fold-improvement over 4E4 Ab (IC50, cAMP assay) | Run 1 IC50 (nM), cell-based cAMP assay, SK-N-MC cells, 3 nM human α-CGRP | Run 2 IC50 (nM), cell-based cAMP assay, SK-N-MC cells, 3 nM human α-CGRP | Binder |
| --- | --- | --- | --- | --- |
| 0.56 nM | 1 fold | 0.43 nM | 0.68 nM | anti-CGRP receptor variant antibody 10, bivalent monoclonal antibody (antibody, human IgG1, lambda, N297G, V domains shown) VH: QVQLVESGGGVVQPGRSLRLSCAASGFFFGSYGMHWVRQAPGKGLEWVAVISFAGEIEHYVDSVKGRFTISRDNSKNTLFLQMNSLRAEDTAVYYCARDRLNYYESSGYYHYKYYGMAVWGQGTTVTVSS VL: QSVLTQPPSVSAAPGQKVTISCSGSSSNIGNNYVSWYQQLPGTAPKLLIYDNNKRPSGIPDRFSGSKSGTSATLGITGLQTGDEADYYCGTWDSRLSAVVFGGGTKLTVLG |
| 0.14 nM | 3.9 fold | 0.13 nM | 0.14 nM | anti-CGRP receptor variant antibody 01, bivalent monoclonal antibody (antibody, human IgG1, lambda, N297G, V domains shown) VH: QVQLVESGGGVVQPGRSLRLSCAASGFTFSSFGMHWVRQAPGKGLEWVAVISFDGSIKYSVDSVKGRFTISRDNSKNTLFLQMNSLRAEDTAVYYCARDRLNYYESSGYYHYKYYGMAVWGQGTTVTVSS VL: QSVLTQPPSVSAAPGQKVTISCSGSYSNIGRYSVSWYQQLPGTAPKLLIYDNNKRPSGIPDRFSGSKSGTSATLGITGLQTGDEADYYCGTWDSRLSAVVFGGGTKLTVLG |
| 0.29 nM | 1.9 fold | 0.18 nM | 0.39 nM | anti-CGRP receptor variant antibody 07, bivalent monoclonal antibody (antibody, human IgG1, lambda, N297G, V domains shown) VH: QVQLVESGGGVVQPGRSLRLSCAASGFYFMTYGMHWVRQAPGKGLEWVAVISFDGSIKYSVDSVKGRFTISRDNSKNTLFLQMNSLRAEDTAVYYCARDRLNYYESSGYYHYKYYGMAVWGQGTTVTVSS VL: QSVLTQPPSVSAAPGQKVTISCSGSSSNIGNNYVSWYQQLPGTAPKLLIYDNNKRPSGIPDRFSGSKSGTSATLGITGLQTGDEADYYCGTWDSRLSAVVFGGGTKLTVLG |
| 0.15 nM | 3.7 fold | 0.14 nM | 0.15 nM | anti-CGRP receptor variant antibody 06, bivalent monoclonal antibody (antibody, human IgG1, lambda, N297G, V domains shown) VH: QVQLVESGGGVVQPGRSLRLSCAASGFTFSSFGMHWVRQAPGKGLEWVAVISFDGSIKYSVDSVKGRFTISRDNSKNTLFLQMNSLRAEDTAVYYCARDRLNYYESSGYYHYKYYGMAVWGQGTTVTVSS VL: QSVLTQPPSVSAAPGQKVTISCSGSYSNIGRKSVSWYQQLPGTAPKLLIYDNNKRPSGIPDRFSGSKSGTSATLGITGLQTGDEADYYCGTWDSRLSAVVFGGGTKLTVLG |
| 0.2 nM | 2.7 fold | 0.15 nM | 0.25 nM | anti-CGRP receptor variant antibody 05, bivalent monoclonal antibody (antibody, human IgG1, lambda, N297G, V domains shown) VH: QVQLVESGGGVVQPGRSLRLSCAASGFTFSSFGMHWVRQAPGKGLEWVAVISFDGSIKYSVDSVKGRFTISRDNSKNTLFLQMNSLRAEDTAVYYCARDRLNYYESSGYYHYKYYGMAVWGQGTTVTVSS VL: QSVLTQPPSVSAAPGQKVTISCSGSFSNIGRSTVSWYQQLPGTAPKLLIYDNRWRAGGIPDRFSGSKSGTSATLGITGLQTGDEADYYCGTWDYQWKAVVFGGGTKLTVLG |
